Laboratory results from patent US20260158139A1, “CARD9 VARIANT POLYPEPTIDE AND ANTIBODIES DIRECTED THERETO” (The Broad Institute, Inc., priority 2023, published 2026).
Where a chain is given by its changes, count along the chain named. Values belong to the molecule of their own block, whether it stands above or below them.

Experiments:
[1] = tested on: T1, CARD9 S104N overexpressed in HEK 293T cells
T1 sequence (Q9H257 1-536 with S104N, species assumed, looked up): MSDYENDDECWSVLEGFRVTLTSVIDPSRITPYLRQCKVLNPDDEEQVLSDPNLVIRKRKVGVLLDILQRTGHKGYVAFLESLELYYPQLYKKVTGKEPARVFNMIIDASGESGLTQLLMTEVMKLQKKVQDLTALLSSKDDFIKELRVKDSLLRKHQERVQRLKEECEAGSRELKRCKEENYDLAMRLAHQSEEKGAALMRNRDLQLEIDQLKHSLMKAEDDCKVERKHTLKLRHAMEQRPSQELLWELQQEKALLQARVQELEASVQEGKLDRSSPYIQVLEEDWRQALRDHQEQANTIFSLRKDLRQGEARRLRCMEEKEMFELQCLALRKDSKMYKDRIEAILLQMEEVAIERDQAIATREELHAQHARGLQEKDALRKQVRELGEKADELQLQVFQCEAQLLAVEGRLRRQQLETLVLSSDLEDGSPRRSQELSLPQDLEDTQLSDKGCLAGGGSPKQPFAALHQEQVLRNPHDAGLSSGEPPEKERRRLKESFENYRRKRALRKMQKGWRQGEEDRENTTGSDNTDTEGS

[2] = tested on: T2, CARD9 R101C overexpressed in HEK 293T cells
T2 sequence (Q9H257 1-536 with R101C, species assumed, looked up): T1 sequence (Q9H257 1-536 with S104N, species assumed, looked up) with R101C, N104S

[3] = tested on: T3, CARD9 FL overexpressed in HEK 293T cells
T3 sequence (Q9H257 1-536, species assumed, looked up): T1 sequence (Q9H257 1-536 with S104N, species assumed, looked up) with N104S

[4] = molecular target: T4, CARD9 (endogenous, in WT mouse BMDCs) (Mus musculus, UniProt A2AIV8 1-536); assay: Bcl10 immunoprecipitation from HKCA-stimulated BMDCs, western blot for CARD9
T4 construct: Endogenous protein in lysates of HKCA-stimulated WT mouse BMDCs; also called WT CARD9
T4 sequence: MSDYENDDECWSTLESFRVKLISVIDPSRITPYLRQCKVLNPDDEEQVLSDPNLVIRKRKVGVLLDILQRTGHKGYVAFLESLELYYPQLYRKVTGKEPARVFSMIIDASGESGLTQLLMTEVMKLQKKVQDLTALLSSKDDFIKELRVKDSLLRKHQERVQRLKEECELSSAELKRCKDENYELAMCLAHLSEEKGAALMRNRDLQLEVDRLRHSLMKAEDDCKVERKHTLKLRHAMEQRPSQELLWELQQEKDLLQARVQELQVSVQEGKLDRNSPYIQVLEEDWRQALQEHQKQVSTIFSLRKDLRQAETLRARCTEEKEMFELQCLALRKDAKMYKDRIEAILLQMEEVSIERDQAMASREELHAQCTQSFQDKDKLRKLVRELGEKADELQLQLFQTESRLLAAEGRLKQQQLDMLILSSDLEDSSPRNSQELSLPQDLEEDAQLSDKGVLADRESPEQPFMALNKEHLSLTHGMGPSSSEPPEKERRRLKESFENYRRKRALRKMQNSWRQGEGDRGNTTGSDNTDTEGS
Experimental: (§1) Lysate was incubated for 30 min and centrifuged at 2000 rpm for 10 min at 4° C. 50 μl of the supernatant was collected as whole cell lysate (WCL) fraction. Remaining supernatant was collected and incubated overnight with 10 al/sample of CARD9 antibody (Cell Signaling Technology #12283S) at 4° C. while rotating. The next day, 50 μl of Dynabeads Protein G beads (Life Technologies #10004D) were added and incubated for 1 h rotating at 4° C. Immunoprecipitates were washed 3× with standard lysis buffer and resuspended in 25 μl of 2× Laemmli buffer (BioRad #1610737) supplemented with 5% R-mercaptoethanol followed by boiling for 10 min at 75° C. For Bcl10 IP to detect CBM complex formation, cell pellets were resuspended in lysis buffer (PBS, 0.5% NP-40) supplemented with 1× Halt Protease & Phosphatase Inhibitor Single-Use Cocktail and Pierce Universal Nuclease and kept on ice for 10 min. Lysate was centrifuged for 10 min at 2000 rpm at 4° C. 50 μl of the supernatant was collected as whole cell lysate (WCL) fraction. Remaining supernatant was incubated overnight with 200 al/sample of Bcl10 antibody (Santa Cruz Biotechnology #sc-5273) at 4° C. rotating. The next day, 50 μl of Dynabeads Protein G beads were added and incubated for 1 h rotating at 4° C. […]

[5] = molecular target: T5, CARD9 R101C (endogenous knock-in variant, in CARD9 R101C mouse BMDCs) (Mus musculus, UniProt A2AIV8 1-536); assay: Bcl10 immunoprecipitation from HKCA-stimulated BMDCs, western blot
T5 construct: CRISPR knock-in mouse; The protein stood in lysates of HKCA-stimulated BMDCs
T5 sequence: T4 sequence with R101C
Experimental: as §1

Molecule: purified PKCδ (Promega PKCδ Kinase Enzyme System #V3401)
in vitro phosphorylation assay (western blot) [1]: this phosphorylation requires an intact RXXS motif in the linker domain
in vitro phosphorylation assay (western blot) [2]: this phosphorylation requires an intact RXXS motif in the linker domain
in vitro phosphorylation assay (western blot) [3]: PKCd does indeed phosphorylate S104

binding result [4]: binds
binding result [5]: no binding
B1: Bcl10 (endogenous, in mouse BMDCs) (other, UniProt Q9Z0H7 1-233, looked up)
chain: MEAPAPSLTEEDLTEVKKDALENLRVYLCEKIIAERHFDHLRAKKILSREDTEEISCRTSSRKRAGKLLDYLQENPRGLDTLVESIRREKTQSFLIQKITDEVLKLRNIKLEHLKGLKCSSCEPFAAGATNNLSRCNSDESNLSEKQRASTVMYHPEGESSTAPFFSMASSLNLPVLEVGRTENSSFSSATLPRPGDPGAPPLPPDLRLEEGGSCGNSSEMFLPLRSRALSRQ
